Earlier results as cited in PMC10018202.

Key:
Cys283 = Cys283 (UniProt position 283, GYILTCPSNLG)
Cys34 = Cys34 (UniProt position 58, QYLQQCPFEDH); experiment: chemical modification (thiol-disulfide exchange with 2,2'-dithiodipyridine, per the title of the cited reference); the article calls it 'spectroscopic measurements'; settings: not stated (the article notes the pKa changes by 1.5 pH units depending on the ionic strength of the buffer)

| Substance | pKa (Cys283) | pKa (Cys34) |
| --- | --- | --- |
| Creatine kinase (the quoted measurement is most likely on human muscle-type CK; the article's docking target is brain-type CK) (Homo sapiens) | around 5.7 and ∼5.6 | – |
| Serum albumin (HSA) (Homo sapiens) | – | around 7 |
